Reference: publication PMC4442525

Assays:
Assay in all cases: pHLA tetramer staining of transfected HEK293T cells
[1] = molecular target: HLA-B*57:01-LF9 A8 tetramer; conditions: parent: est. 57; read off a plot
[2] = molecular target: HLA-B*57:01-LF9 L8 tetramer; conditions: parent: est. 58; read off a plot
[3] = molecular target: HLA-B*57:01-TW10 T3N tetramer; conditions: read off a plot; for response: parent: est. 19, scale: relative to HLA-B*57:01-TW10 binding to KIR3DL1*001; for percent of parent (normalized to *001 (=100)): parent: est. 100
[4] = molecular target: HLA-B*57:01-TW10 tetramer; conditions: parent: est. 100, read off a plot; for response: scale: relative to HLA-B*57:01-TW10 binding to KIR3DL1*001

FLAG-tagged KIR3DL1*001 (from UniProt P43629) G138W
response [1]: 40 | response [2]: 23 | response [3]: 10 | percent of parent (normalized to *001 (=100)) [3]: 44

FLAG-tagged KIR3DL1*001 (from UniProt P43629) P163S
response [1]: 45 | response [3]: 9 | percent of parent (normalized to *001 (=100)) [3]: 41 | percent of parent (normalized to *001 (=100)) [4]: 97 | response [4]: 97

FLAG-tagged KIR3DL1*001 (from UniProt P43629) P199L
response [1]: 70 | percent of parent (normalized to *001 (=100)) [4]: 190 | response [4]: 190

FLAG-tagged KIR3DL1*001 (from UniProt P43629) L166R
response [1]: 9 | response [2]: 5 | response [3]: 8 | percent of parent (normalized to *001 (=100)) [3]: 36 | percent of parent (normalized to *001 (=100)) [4]: 48 | response [4]: 48
